Assay results as given in the supplement of paper PMC12042874.
± gives the uncertainty stated by the source.

assay: amyloid nucleation score (Sup35N fusion, yeast selection) (log enrichment); library NNK2; higher = more nucleation; inactive = no reads after selection
How it was run: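 Psi-negative yeast expressed Sup35N fused to peptides of 20 random codons. They were induced 24 hours with 100 μM copper sulfate, grown 7 days at 30°C without adenine and uracil, and their plasmid inserts from input and output were Illumina-sequenced. The nucleation score is the DiMSum log enrichment of output over input reads, centred on the mode score of non-aggregating sequences. Sequences with under 100 input reads were excluded.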

For FRHYSYRRWQSLHKIVGICH, the amyloid nucleation score was “inactive”.
For RYGFSVSITMIFYRGGFCRW, the amyloid nucleation score was “inactive”.
For VYTTLPYSFGGYNCYMSSRL, the amyloid nucleation score was “inactive”.
With GIYGSGIAFRRSGGWWEVCS the amyloid nucleation score was “inactive”.
For ESNMSKLAFRRDTVF, the amyloid nucleation score was “inactive”.
In the case of FGYMCEAPHRVDFRLFELLQ, the amyloid nucleation score is reported as “inactive”.
With INTSELNVFRS the amyloid nucleation score was “inactive”.
For VKYRDIMSRGSVVRQNDKVS, the amyloid nucleation score was “inactive”.
In the case of VEMAFRFQRSKSCLSLDDFV, the amyloid nucleation score is reported as “inactive”.
In the case of RLNAMEESIKSNIYSFWSFY, the amyloid nucleation score is reported as “inactive”.
For TAFSNRCLIQSQKSYLQFSV, the amyloid nucleation score was “inactive”.
For LLEFWDHLVYSMIECNRKNV, the amyloid nucleation score was “inactive”.
For ITINSMSPRLPIRLRVVWKG, the amyloid nucleation score was “inactive”.
For DRFRYICSYVENSDYLLRCL, the amyloid nucleation score was “inactive”.

Going from GVTKNCSC to YSWSRVKFNSL, the amyloid nucleation score rises from -0.036 ± 0.63 to 2.53 ± 0.076.

Compared with FLMANSFFCNCFYTVYFTHC, TDCVKTRPCGRLVKIPLYME is lower in amyloid nucleation score: 4.52 ± 0.047 for the first, -0.708 ± 1.1 for the second.

First: TVIGLLIIVVGSYDVCSNVW
Second: TGNVTGRLFWNVFVRYSGVL
The amyloid nucleation score of the first is higher: 6.163 ± 0.041 for the first, -0.03 ± 0.55 for the second.

First: LRFMNPRSALRYTKVSCTGN
Second: FSNIVNCSDRCATCVYFEFV
The amyloid nucleation score of the first is lower: -0.587 ± 0.54 for the first, 4.808 ± 0.047 for the second.

Going from RHNKNRSVCSYRSKYAKKYV to PHDVFRWCVCAVPGSERSTG, the amyloid nucleation score rises from -0.208 ± 0.74 to 0.815 ± 0.25.

Compared with ILWDTIREVHVHADMDMAPN, YNLSVFQVITAPHEGDNRAW is higher in amyloid nucleation score: -0.782 ± 0.61 for the first, 4.55 ± 0.049 for the second.

FSLFCPWRKWLLDEVFM and TYFVLYVCED are within error of each other in amyloid nucleation score: 0.5 ± 0.27 for the first, 0.311 ± 0.23 for the second.

NFNACIPNKDRSFSNVDVCV and GSLAGAKL are within error of each other in amyloid nucleation score: -1.35 ± 1 for the first, -0.588 ± 0.76 for the second.

First: NSNFRLTCTFSSMHYKLARG
Second: IVKFKKRVDRHLSSGDQLVR
The amyloid nucleation score of the first is higher: 2.9 ± 0.21 for the first, 1.19 ± 0.61 for the second.

First: LMPDSCSNPRWKTEVLTIRG
Second: IFASRSGFLSIRQLSHPARR
The amyloid nucleation score of the first is lower: -0.199 ± 1.1 for the first, 3.35 ± 0.078 for the second.

First: MFIGLLVLRLLFAYQNDKSY
Second: CAYGLFVNVFSVDADLRYKY
The amyloid nucleation score of the first is lower: 0.153 ± 0.79 for the first, 7.544 ± 0.022 for the second.

Going from MVVGIAVYRCSFNRTDLFPS to QDVFCLSGLNSHCK, the amyloid nucleation score falls from 0.655 ± 0.2 to -1.45 ± 0.78.

YYNSATPTDDGWWKISG and FFFDDSKVYQNWEEDVEGNQ are within error of each other in amyloid nucleation score: -0.574 ± 1 for the first, -0.389 ± 0.34 for the second.

First: IGIDLVRSGSVIFPSPTWKV
Second: SFNVSTMRLQIVSVLRKSRR
The amyloid nucleation score of the first is higher: 4.411 ± 0.037 for the first, 0.236 ± 1.1 for the second.

EVFACTSG and FTKSKWLWSRAAFLRIDRW are within error of each other in amyloid nucleation score: 1.56 ± 0.44 for the first, 0.799 ± 0.74 for the second.

FPFLDGVVLSKEFYNLR and YICSFYEADRSTRCFLIFFF are within error of each other in amyloid nucleation score: -1 ± 1 for the first, -1.23 ± 0.44 for the second.

Compared with CGWGYLTCPSRTVVWARAGV, SNSFVVFSRVVTRKFVCVLW is lower in amyloid nucleation score: 1.35 ± 0.25 for the first, -0.691 ± 0.46 for the second.

ASVENGSALIIRESDMSGGN and FLDKCVRSSIENYWV are within error of each other in amyloid nucleation score: 0.556 ± 0.43 for the first, -0.074 ± 1.1 for the second.

YCVSPELDWTSIARGHTFNV and IPVSMWQDRVTEVLDFGLRK are within error of each other in amyloid nucleation score: -0.509 ± 1.1 for the first, 0.389 ± 0.8 for the second.

Compared with LMTSYLRSPDSAPETLRE, DAWFVINHHPIEYLSLRVWR is higher in amyloid nucleation score: -0.484 ± 0.49 for the first, 0.98 ± 0.27 for the second.

First: SDPHMHD
Second: FYYLWWDSFRIVISMR
The amyloid nucleation score of the first is higher: 0.521 ± 0.25 for the first, -1.86 ± 0.62 for the second.

First: LRVGSCNVTSLMGNLVGLDS
Second: NSIGV
The amyloid nucleation score of the first is higher: 1.37 ± 0.42 for the first, -1.02 ± 0.55 for the second.

LFSCGKSMQLVMWYGLSFCG and YAQQIVVLVAGPWWSWTRRG are within error of each other in amyloid nucleation score: 0.306 ± 0.37 for the first, 0.791 ± 0.81 for the second.

First: VSPALK
Second: CDSKVENIWVDLNEMYFFCN
The amyloid nucleation score of the first is lower: -0.055 ± 1.1 for the first, 2.54 ± 0.17 for the second.

Compared with PMFNEHRFSR, NGFNYFKMW is lower in amyloid nucleation score: 2.37 ± 0.1 for the first, -1.65 ± 1.1 for the second.

Going from LRNFSYIRQGGSRVSSASGY to IQSFVKYKNVSRMYLTCPNL, the amyloid nucleation score rises from -1.18 ± 1.1 to 1.2 ± 0.2.

First: LQASIIAMVRGRTNDSFLED
Second: VLRNKVVCSYQLYLRWFGKD
The amyloid nucleation score of the first is higher: 2.7 ± 0.21 for the first, 1.64 ± 0.37 for the second.

Going from FNSLILQIIVVRV to VNNATKIGWSSMAIRDNKTI, the amyloid nucleation score falls from 7.843 ± 0.04 to -0.142 ± 0.49.

First: IGINLCCGDYFIHVLSASCS
Second: IPQEYPSDSMDVVMYISTLV
The amyloid nucleation score of the first is higher: 5.2 ± 0.058 for the first, -0.016 ± 0.79 for the second.

Compared with SFKVMYKENNTNLGSLLWDG, ISHISDL is higher in amyloid nucleation score: 0.049 ± 0.21 for the first, 4.61 ± 0.072 for the second.

Compared with WDYVQVCPNLLVRTLLFMFA, TLMCFYYFEQ is higher in amyloid nucleation score: -0.81 ± 0.32 for the first, 9.395 ± 0.053 for the second.

Compared with YLFDLVFILEQYFWL, GDSFLWTHS is lower in amyloid nucleation score: 2.85 ± 0.049 for the first, -0.994 ± 0.62 for the second.

Compared with YGRLECISWCPISIHCGGAR, CKRSWVSYMHW is lower in amyloid nucleation score: 3.47 ± 0.11 for the first, -0.593 ± 1.1 for the second.

First: IVWLMHSSSHRT
Second: HLWFLCRSYGGVLKFHTESV
The amyloid nucleation score of the first is higher: 5.79 ± 0.076 for the first, 1.03 ± 0.43 for the second.

Compared with QVYLS, SSIRLFCFTMAHVHMTDSHD is higher in amyloid nucleation score: -1.17 ± 0.62 for the first, 4.53 ± 0.11 for the second.

First: NVGGIASLGPFTY
Second: FSSWAFLMSRLCYHDSESHL
The amyloid nucleation score of the first is lower: -0.14 ± 0.27 for the first, 0.417 ± 0.16 for the second.
